This note sets out measurements from patent US9327008B2, “Cell-permeant peptide-based inhibitor of kinases” (Purdue Research Foundation, priority 2008, dated 2016).

Format in all cases: biochemical
In one assay the target is T1, PRAK (Homo sapiens, UniProt Q8IW41).
T1 construct: purchased Millipore (assay service)
T1 sequence (Q8IW41 1-473): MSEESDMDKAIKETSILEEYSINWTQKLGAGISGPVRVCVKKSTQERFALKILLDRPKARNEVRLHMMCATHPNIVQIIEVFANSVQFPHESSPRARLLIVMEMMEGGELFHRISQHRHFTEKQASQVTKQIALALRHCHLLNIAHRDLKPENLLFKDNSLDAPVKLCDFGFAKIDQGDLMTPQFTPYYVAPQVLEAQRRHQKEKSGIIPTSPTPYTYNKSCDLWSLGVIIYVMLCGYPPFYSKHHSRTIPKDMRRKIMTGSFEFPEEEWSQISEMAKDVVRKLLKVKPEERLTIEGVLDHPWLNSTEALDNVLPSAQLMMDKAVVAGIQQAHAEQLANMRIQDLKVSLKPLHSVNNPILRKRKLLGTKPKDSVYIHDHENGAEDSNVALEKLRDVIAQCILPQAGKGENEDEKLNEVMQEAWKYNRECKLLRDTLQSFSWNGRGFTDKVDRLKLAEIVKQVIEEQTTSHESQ
Briefly: Millipore radiometric kinase activity assay, PRAK (h). The settings on record: SD of 2 samples. The method, then:
(§1) A commercial radiometric assay service (Millipore, Billerica, Mass.) was used to test the specificity and potency of peptides containing a coupled transduction domain and therapeutic domain, hereinafter “complete peptides”). In these assays, if the kinase is not inhibited by an inhibitor peptide, a positively charged substrate is phosphorylated with a radiolabeled phosphate group from an ATP.
(§2) In a final reaction volume of 25 μL, PRAK (h) (5-10 mU) is incubated with 50 mM Naβ-glycerophosphate pH 7.5, 0.1 mM EGTA, 30 μM […] [SEQ ID NO: 65], 10 mM MgAcetate and [γ-^33P-ATP] (specific activity approx. 500 cpm/pmol, concentration as required). The reaction is initiated by the addition of the MgATP mix. After incubation for 40 minutes at room temperature, the reaction is stopped by the addition of 5 μL of a 3% phosphoric acid solution. 10 μL of the reaction is then spotted onto a P30 filtermat and washed three times for 5 minutes in 50 mM phosphoric acid and once in methanol prior to drying and scintillation counting.
(§3) IC50 values for inhibitor peptides were determined using Millipore's IC50Profiler Express service. The IC50 value was estimated from a 10-point curve of one-half log dilutions. For peptides tested for specificity, the concentration of the peptides that inhibited approximately 95% of MK2 activity was chosen to profile against a battery of kinases related to MK2, cell viability, or human disease from MilliporeKinaseProfiler service. In both assays, compounds were supplied in dimethylsulfoxide (DMSO). Every kinase activity measurement was conducted in duplicate.
(§4) Additional therapeutic inhibitor peptide variants were assayed for activity against several human kinases representative of several families of kinases. These kinases included: MK2; MK3; CaMKI (calcium/calmodulin-dependent protein kinase); PRAK (p38 regulated/activated protein kinase, also known as mitogen-activated protein kinase activated protein kinase 5 (MAPKAPK5)); SAPK2a (p38α); IRAK4 (IL-1 receptor (IL-1R)-associated kinase); MLCK (myosin light chain kinase); PKBβ (protein kinase B); PCKδ (protein kinase C); and ROCK-I (Rho-associated serine/threonine kinase).

Another assay addresses T2, PKBβ (Homo sapiens, UniProt P31751).
T2 construct: purchased Millipore (radiometric assay service)
Briefly: Millipore radiometric kinase activity assay, PKBβ (h). The following applies: for PKBβ Kinase Activity: peptide inhibitor 300 μM, SD of 2 samples. On the procedure:
as §1
In a final reaction volume of 25 μL, […] (5-10 mU) is incubated with 8 mM MOPS pH 7.0, 0.2 mM EDTA, 30 μM […] [SEQ ID NO: 60], 10 mM MgAcetate and ['y-^33P-ATP] (specific activity approx. 500 cpm/pmol, concentration as required). The reaction is initiated by the addition of the MgATP mix. After incubation for 40 minutes at room temperature, the reaction is stopped by the addition of 5 μL it of a 3% phosphoric acid solution. 10 μL of the reaction is then spotted onto a P30 filtermat and washed three times for 5 minutes in 75 mM phosphoric acid and once in methanol prior to drying and scintillation counting.
as §3
(§5) Therapeutic inhibitor peptides were assayed for activity against human kinases related to MK2, cell viability, or human disease. The assays were performed using concentrations of therapeutic inhibitor peptides that yielded 2% to 8% of normal MK2 activity. Error is reported as the standard deviation between 2 samples, and “c” is rat AMPK whereas all other kinases used are human kinases.
as §4

The target of another assay is T3, PKCδ (Homo sapiens, UniProt Q05655).
T3 construct: purchased Millipore (radiometric assay service)
Nature of the assay: Millipore radiometric kinase activity assay, PKCδ (h). The following applies: for PKCδ Kinase Activity: peptide inhibitor 300 μM, SD of 2 samples. The method, then:
as §1
as §2, with “μL, PKCδ” for “μL, PRAK”, “with 20 mM HEPES pH 7.4, 0.03% Triton X-100, 0.1 mg/mL phosphatidylserine, 10 μg/mL diacylglycerol,” for “with”, “50” for “50 mM Naβ-glycerophosphate pH 7.5, 0.1 mM EGTA, 30”, “NO: 61],” for “NO: 65],”, “in 75” for “in 50”
as §3, §5, §4

The target in another assay is T4, SAPK2a (p38α) (Homo sapiens, UniProt Q16539).
T4 construct: purchased Millipore (radiometric assay service)
Briefly: Millipore radiometric kinase activity assay, SAPK2a (h). The following applies: for SAPK2a (p38α) Kinase Activity: peptide inhibitor 300 μM, SD of 2 samples. On the procedure:
as §1
(§6) In a final reaction volume of 25 μL, SAPK2a (h) (5-10 mU) is incubated with 25 mM Tris pH 7.5, 0.02 mM EGTA, 0.33 mg/mL myelin basic protein, 10 mM MgAcetate and [γ-^33P-ATP] (specific activity approx. 500 cpm/pmol, concentration as required). The reaction is initiated by the addition of the MgATP mix. After incubation for 40 minutes at room temperature, the reaction is stopped by the addition of 5 μL of a 3% phosphoric acid solution. 10 μL of the reaction is then spotted onto a P30 filtermat and washed three times for 5 minutes in 75 mM phosphoric acid and once in methanol prior to drying and scintillation counting.
as §3, §5, §4

A further assay has as its target T5, PKCβI (Homo sapiens, UniProt P05771).
T5 construct: purchased Millipore (radiometric assay service)
Nature of the assay: Millipore radiometric kinase activity assay, PKCβI (h). On the procedure:
as §1
as §6, with “μL, PKCβI” for “μL, SAPK2a”, “with 20” for “with 25”, “mM HEPES” for “mM Tris”, “pH 7.4, 0.03% Triton X-100, 0.1” for “pH 7.5, 0.02”, “mM CaCl2, 0.1” for “mM EGTA, 0.33”, “mg/mL phosphatidylserine, 10 μg/mL diacylglycerol, 0.1 mg/mL histone H1,” for “mg/mL myelin basic protein,”
as §3, §5

Where [1] appears, read: peptide 100 μM, listed as KAFAKLAARLYRLARQLGVAA
The mark [2] stands for this setting: peptide 30 μM, listed as WLRRIKAWLRRI-.

T4 sequence (Q16539 whole entry): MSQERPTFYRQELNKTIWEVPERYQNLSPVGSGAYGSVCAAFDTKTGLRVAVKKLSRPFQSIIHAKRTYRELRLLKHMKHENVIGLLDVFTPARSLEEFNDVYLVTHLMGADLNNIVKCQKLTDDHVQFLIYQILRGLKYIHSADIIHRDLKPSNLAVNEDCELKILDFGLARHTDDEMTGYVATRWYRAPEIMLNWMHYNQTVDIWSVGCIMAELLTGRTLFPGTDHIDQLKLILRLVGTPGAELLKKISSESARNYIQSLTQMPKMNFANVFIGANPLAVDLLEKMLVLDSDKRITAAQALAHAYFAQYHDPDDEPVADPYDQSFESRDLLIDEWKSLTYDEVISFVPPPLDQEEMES
T3 sequence (Q05655 whole entry): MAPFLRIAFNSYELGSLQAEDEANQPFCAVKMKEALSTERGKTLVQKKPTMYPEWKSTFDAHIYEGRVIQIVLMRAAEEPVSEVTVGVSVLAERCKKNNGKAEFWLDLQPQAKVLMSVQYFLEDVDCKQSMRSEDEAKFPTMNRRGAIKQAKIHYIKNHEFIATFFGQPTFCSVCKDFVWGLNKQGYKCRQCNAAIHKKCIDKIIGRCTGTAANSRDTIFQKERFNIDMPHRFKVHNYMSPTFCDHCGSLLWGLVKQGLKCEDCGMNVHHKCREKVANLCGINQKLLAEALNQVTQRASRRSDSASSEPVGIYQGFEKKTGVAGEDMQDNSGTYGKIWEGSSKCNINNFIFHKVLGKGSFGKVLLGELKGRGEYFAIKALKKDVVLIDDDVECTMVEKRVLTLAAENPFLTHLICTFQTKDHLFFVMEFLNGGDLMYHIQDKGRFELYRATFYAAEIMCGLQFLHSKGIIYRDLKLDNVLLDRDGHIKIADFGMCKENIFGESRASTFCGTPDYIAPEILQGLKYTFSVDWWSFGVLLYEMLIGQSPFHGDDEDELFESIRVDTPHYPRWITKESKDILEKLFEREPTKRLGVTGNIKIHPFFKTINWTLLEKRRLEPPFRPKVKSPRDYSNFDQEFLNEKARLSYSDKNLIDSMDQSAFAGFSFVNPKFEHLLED
T5 sequence (P05771 whole entry): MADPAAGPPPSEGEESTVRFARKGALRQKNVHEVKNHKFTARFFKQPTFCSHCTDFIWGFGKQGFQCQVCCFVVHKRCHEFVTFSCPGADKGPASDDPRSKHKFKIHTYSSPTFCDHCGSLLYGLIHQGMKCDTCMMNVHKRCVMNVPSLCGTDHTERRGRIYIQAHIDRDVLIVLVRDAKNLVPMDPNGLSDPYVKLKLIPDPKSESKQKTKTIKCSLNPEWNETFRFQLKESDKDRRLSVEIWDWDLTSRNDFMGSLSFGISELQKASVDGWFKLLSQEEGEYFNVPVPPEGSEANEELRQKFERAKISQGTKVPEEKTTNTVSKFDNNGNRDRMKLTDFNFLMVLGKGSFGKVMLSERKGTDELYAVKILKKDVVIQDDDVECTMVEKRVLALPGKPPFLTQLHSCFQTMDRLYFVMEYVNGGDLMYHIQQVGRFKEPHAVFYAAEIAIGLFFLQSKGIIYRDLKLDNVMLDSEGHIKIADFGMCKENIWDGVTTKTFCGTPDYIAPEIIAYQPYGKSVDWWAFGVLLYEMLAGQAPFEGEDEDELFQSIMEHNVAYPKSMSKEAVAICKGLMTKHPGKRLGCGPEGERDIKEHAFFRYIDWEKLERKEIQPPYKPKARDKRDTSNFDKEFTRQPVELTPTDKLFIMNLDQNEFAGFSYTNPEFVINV
T2 sequence (P31751 whole entry): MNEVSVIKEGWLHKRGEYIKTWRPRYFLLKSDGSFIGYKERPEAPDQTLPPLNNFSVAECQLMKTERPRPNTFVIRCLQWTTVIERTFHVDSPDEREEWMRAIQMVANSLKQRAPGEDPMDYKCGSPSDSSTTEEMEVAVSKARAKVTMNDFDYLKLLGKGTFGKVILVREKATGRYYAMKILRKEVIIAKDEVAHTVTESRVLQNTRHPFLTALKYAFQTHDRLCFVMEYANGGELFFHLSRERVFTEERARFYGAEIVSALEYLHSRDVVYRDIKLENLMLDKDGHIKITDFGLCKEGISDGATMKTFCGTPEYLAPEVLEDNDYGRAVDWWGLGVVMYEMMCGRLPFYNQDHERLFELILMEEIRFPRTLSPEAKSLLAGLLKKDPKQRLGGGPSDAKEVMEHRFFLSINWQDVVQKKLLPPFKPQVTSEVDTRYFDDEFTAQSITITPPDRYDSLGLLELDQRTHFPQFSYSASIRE

On to FAKLAARLYRKALARQLGVAA, for which the “PRAK Kinase Activity” value with PRAK (peptide inhibitor 100 μM) was 131(4) %. In addition, in the assay with PKBβ (peptide 100 μM), the “PKBβ Kinase Activity (%) (+SD %)” value is listed as 16(5) %. In addition, in the assay with PKCδ (peptide 100 μM), the “PKCδ Kinase Activity (%) (+SD %)” value was 40(2) %. Moreover, in the assay with SAPK2a (p38α) (Table 5, 100 μM), the “inhibition of SAPK2a activity (in words)” value was “inhibited activity of SAPK2a”. For the same sequence, the “SAPK2a Kinase Activity (%) (+SD %)” value in the assay with SAPK2a (p38α) (peptide 100 μM) is 30(6) %.
For KAFAKLAARLYRKALARQLGVAA, the “PRAK Kinase Activity” value with PRAK (peptide inhibitor 100 μM) is listed as 148(4) %. Besides, the “PKBβ Kinase Activity (%) (+SD %)” value is reported as 28 (4) % in the assay with PKBβ (peptide 100 μM) and 28(4) % with PKBβ (setting [1]). In the assay with PKCβI (peptide 100 μM), the “PKCβ1 Kinase Activity (%) (+SD %)” value is recorded as 23 (3) %. Further, the figures for the “PKCδ Kinase Activity (%) (+SD %)” value with PKCδ (peptide 100 μM) and with PKCδ (setting [1]) were 24 (3) % and 24(3) %, respectively. Also, the “SAPK2a Kinase Activity (%) (+SD %)” value in the assay with SAPK2a (p38α) (peptide 100 μM) is given as 59 (8) %; with SAPK2a (p38α) (setting [1]), 59(8) %.
WLRRIKAWLRRIKALNRQLGVAA: in the assay with PRAK (peptide inhibitor 30 μM), the “PRAK Kinase Activity” value is reported as 67(9) %. Moreover, the “PKBβ Kinase Activity (%) (+SD %)” value in the assay with PKBβ (peptide 30 μM) is given as 18(2) %; in the assay with PKBβ (setting [2]), 18 (2) %; with PKBβ (peptide 100 μM), 16 (5) %. Moreover, the “PKCβ1 Kinase Activity (%) (+SD %)” value is reported as 8 (4) % with PKCβI (peptide 30 μM) and 73 (0) % with PKCβI (peptide 100 μM). For the same sequence, the “PKCδ Kinase Activity (%) (+SD %)” value was 11(0) % with PKCδ (peptide 30 μM), 11 (0) % with PKCδ (setting [2]) and 40 (2) % in the assay with PKCδ (peptide 100 μM). For the same sequence, the “SAPK2a Kinase Activity (%) (+SD %)” value with SAPK2a (p38α) (peptide 30 μM) was 61(7) %; with SAPK2a (p38α) (setting [2]), 61 (7) %; in the assay with SAPK2a (p38α) (peptide 100 μM), 30 (6) %.
YARAAARQARAKALARQLGVAA: the “PRAK Kinase Activity” value in the assay with PRAK (peptide inhibitor 300 μM) was 86(2) %. The “PKBβ Kinase Activity” value with PKBβ was 17(2) %. Besides, in the assay with PKCδ, the “PKCδ Kinase Activity” value is recorded as 101(3) %. Besides, in the assay with SAPK2a (p38α), the “SAPK2a (p38α) Kinase Activity” value is recorded as 66(3) %.
In the same order, the values of YARAAARQARAKALNRQLGVAA are 81(3) %, 96(1) %, 105(2) % and 100(6) %.
